# B1: anti-properdin monoclonal antibody IgG (14G11) (antibody, V domains shown)
# VH: QVTLKESGPGILQPSQTLSLTCSFSGFSLSTSGMGVGWIRQPSGKGLEWLAHIWWDDVKSYNPALKSRLTISKDTSSSQVFLRIASVDTADTATYYCARIGDGYYSFDYWGQGTTLTVSS
# VL: DIVMTQSHKFMSTSVGDRVSISCKASQDVSDAVAWFQQKPGQSPKLLIYSPSYRYTGVPDRFTGSGSGTDFTFTISSVQAEDLAVYYCQQHYSTPWTFGGGTKLEIKR
# Target: human properdin (human, UniProt P27918 28-469)
# Test: cell-based or functional assay
# human properdin, sequence (P27918 28-469 limits assumed): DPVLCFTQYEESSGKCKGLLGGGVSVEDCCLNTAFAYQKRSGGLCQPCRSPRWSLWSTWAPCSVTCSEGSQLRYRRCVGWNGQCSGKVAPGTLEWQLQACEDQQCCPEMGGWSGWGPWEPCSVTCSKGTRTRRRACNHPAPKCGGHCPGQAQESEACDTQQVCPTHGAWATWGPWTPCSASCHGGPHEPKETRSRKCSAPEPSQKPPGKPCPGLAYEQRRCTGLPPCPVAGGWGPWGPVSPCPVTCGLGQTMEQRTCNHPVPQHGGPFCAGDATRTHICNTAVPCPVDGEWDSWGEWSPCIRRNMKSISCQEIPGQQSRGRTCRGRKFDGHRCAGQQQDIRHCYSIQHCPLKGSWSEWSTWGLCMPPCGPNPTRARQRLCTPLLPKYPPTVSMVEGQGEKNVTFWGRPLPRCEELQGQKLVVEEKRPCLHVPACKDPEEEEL
binder,measurement,value
B1,IC50 of inhibition of AP dependent hemolysis of rRBC in 10% normal human serum,10 nM
